In a protein production outcome set (Wang et al. 2014):

Assay: label from the status in PepcDB records

| Sequence | protein production |
| --- | --- |
| MTINNDPMRDAIVDTAVELAAHTSWEAVRLYDIAARLAVSLDEIRLYFREKDELIDAWFDRADSRMLKEAESAGFLDLVASERIHHLIMIWLDALAVQRKVTRQMIMSKLEFGHIHIQIPAVMRVSRTVQWVREAAQRDATFMRRALEESTLTTIYLMTFFFWMRDESENSRHTRQFLKRHLTMAAWLGQKVYGKDPEKSTVPHKQQIPLQFD | not failed |
| MVRHRGNKEERQQALRRYLRSNPFATDEELAEKFEVSVPTIRLDRLALGIPEVRERIMAMAQEARSRMRGVTAEELVGELVELQPGVMGISILEITPPMLVQPAGVARGYYLFAQAHSLALATVGAEVVLTSSARVRYRRPVYAGERVVARAMVKVVKDSTCLVSVHSRVNGEIVFKGRYIIITPDAATGGGSA | failed |
| MTTDQHQEILRTEGLSKFFPGVKALDNVDFSLRRGEIMALLGENGAGKSTLIKALTGVYHADRGTIWLEGQAISPKNTAHAQQLGIGTVYQEVNLLPNMSVADNLFIGREPKRFGLLRRKEMEKRATELMASYGFSLDVREPLNRFSVAMQQIVAICRAIDLSAKVLILDEPTASLDTQEVELLFDLMRQLRDRGVSLIFVTHFLDQVYQVSDRITVLRNGSFVGCRETCELPQIELVKMMLGRELDTHALQRAGRTLLSDKPVAAFKNYGKKGTIAPFDLEVRPGEIVGLAGLLGSGRTETAEVIFGIKPADSGTALIKGKPQNLRSPHQASVLGIGFCPEDRKTDGIIAAASVRENIILALQAQRGWLRPISRKEQQEIAERFIRQLGIRTPSTEQPIEFLSGGNQQKVLLSRWLLTRPQFLILDEPTRGIDVGAHAEIIRLIETLCADGLALLVISSELEELVGYADRVIIMRDRKQVAEIPLAELSVPAIMNAIAA | failed |
| MASLIMTTPFPGSVTACKKTNNLSVQRAFKVTCMQTEKPLEELYNVKVERKVSQKRLEELGVSRWSVWKTGKCKLPWDWQVDQLVYIEQGEVRVVPEGSKRYMQFLAGDLVRYPKWLEADLFFNAPYIERYCFKAYGDD | failed |
| MVVADGHDLQESPLRWIPFLAVFLYVYIEISIFIQVAHVLGVLMTLILVIFTSVIGMSLVRNQGFKNFLLMQQKMAAGESPAAEMIKSVSLIIAGLLLLLPGFFTDFLGLLLLLPPVQKHLTLKLLPHLRFSRMPGGGFSAGTGGGETFDGEYQRKDDDRDRIEHKDDRRD | failed |
| MIRQLSLKDYEGVAGSALIDEIRSLGESLQGYNVRHINSTIIGGGVAEILSSLVPLMEDVGLTVNWEVLAGTTEFFHTTKLFHNGMHGQPVNITGEMLENYLAIAQKNQNLLDGDADLVVIHDQQPLGLTAFRGRTRGRWLWYCHVDPRYAVPEVWYFLAPMVATCDAAVFHLPEYARDLEHHHHHH | failed |
| CEGGVDMQQSQVQLQCPLTPPRGLQVSIQGEAVAVRPGEDVLFVVRQEQGDVLTTKYQVDLGDGFKAMYVNLTLTGEPIRHRYESPGIYRVSVRAENTAGHDEAVLFVQV | not failed |
| PKSQACEPSEPEIEIKLPKLRTLDVFSGCGGLSEGFHQAGISDTLWAIEMWDPAAQAFRLNNPGSTVFTEDCNILLKLVMAGETTNSRGQRLPQKGDVEMLCGGPPCQGFSGMNRFNSRTYSKFKNSLVVSFLSYCDYYRPRFFLLENVRNFVSFKRSMVLKLTLRCLVRMGYQCTFGVLQAGQYGVAQTRRRAIILAAAPGEKLPLFPEPLHVFAPRACQLSVVVDDKKFVSNITRLSSGPFRTITVRDTMSDLPEVRNGASALEISYNGEPQSWFQRQLRGAQYQPILRDHICKDMSALVAARMRHIPLAPGSDWRDLPNIEVRLSDGTMARKLRYTHHDRKNGRSSSGALRGVCSCVEAGKACDPAARQFNTLIPWCLPHTGNRHNHWAGLYGRLEWDGFFSTTVTNPEPMGKQGRVLHPEQHRVVSVRECARSQGFPDTYRLFGNILDKHRQVGNAVPPPLAKAIGLEIKLCML | failed |
| MPRSCDVVVVNYNAGLLLEDCVISVLAQDINRLVLVDNASHDGSLEQVATRFAADERLLILRNPSNTGFAAACNLGASHCEQPHILFLNPDTVLQPGALQGMIDALRHTHDLGMAGGLLCNFDGSEQPGGRRVFPTPRRAVVRALNLSGLAWLSPRLFSDFLLHREPLPSRPTQVEAISGACMLVKRKALDSVGGWDEGYFLHCEDLDLCMRFRQEGWKVCFVPQARIFHAWGACSRTRPVFVEWHKHRGMIRFYGKFFREDYPRVLSWSICAGVWLRFSFVVGYHWLAQLGRILGQPR | failed |
